Test results reported in the supplement of paper PMC9112550, “Optimization of the antimicrobial peptide Bac7 by deep mutational scanning” (BMC Biology, 2022).
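Also: peptides expressed intracellularly from a pBAD plasmid library in pooled LB shake-flask culture, induced with 0.3% L-arabinose, DNA abundance read by NGS, three biological replicates, DESeq2 with apeglm shrinkage.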

Each sequence was assayed on Escherichia coli TOP10 (assay: shrunken log2 fold change of peptide-encoding DNA abundance (4.5 h post-induction vs induction); higher = less antimicrobial activity (less host growth inhibition)). Conditions: time post-induction: 4.5 h; library: site-saturation at positions 5, 18, 19, 20.
For RRIRSRPPRLPRPRPRPVEEPRP, the “shrunken log2 fold change” value was 0.0884. In the case of RRIRYRPPRLPRPRPRPFCWPRP, the “shrunken log2 fold change” value is reported as -0.212. With RRIRIRPPRLPRPRPRPWRRPRP the “shrunken log2 fold change” value was 1.46. In the case of RRIRVRPPRLPRPRPRPHMYPRP, the “shrunken log2 fold change” value is reported as -0.509. With RRIRGRPPRLPRPRPRPDRIPRP the “shrunken log2 fold change” value was 0.286. RRIRGRPPRLPRPRPRPFRAPRP was tested, and the “shrunken log2 fold change” value was 0.209. For RRIRFRPPRLPRPRPRPCHFPRP, the “shrunken log2 fold change” value was -0.00959. For RRIRTRPPRLPRPRPRPIRNPRP, the “shrunken log2 fold change” value was -0.324. RRIRNRPPRLPRPRPRPQLAPRP was tested, and the “shrunken log2 fold change” value was -0.123. For RRIRCRPPRLPRPRPRPRNEPRP, the “shrunken log2 fold change” value was -0.0561. RRIRCRPPRLPRPRPRPGATPRP was tested, and the “shrunken log2 fold change” value was 0.512. With RRIRERPPRLPRPRPRPKHDPRP the “shrunken log2 fold change” value was -0.441. With RRIRVRPPRLPRPRPRPVAIPRP the “shrunken log2 fold change” value was -0.396. RRIRTRPPRLPRPRPRPPQIPRP was tested, and the “shrunken log2 fold change” value was 0.16. For RRIRERPPRLPRPRPRPDSIPRP, the “shrunken log2 fold change” value was -0.042. In the case of RRIRVRPPRLPRPRPRPKQYPRP, the “shrunken log2 fold change” value is reported as -0.558. For RRIRDRPPRLPRPRPRPIQIPRP, the “shrunken log2 fold change” value was -0.384. With RRIRARPPRLPRPRPRPLWNPRP the “shrunken log2 fold change” value was 0.0673. RRIRVRPPRLPRPRPRPNDRPRP was tested, and the “shrunken log2 fold change” value was -0.0172. In the case of RRIRFRPPRLPRPRPRPIHMPRP, the “shrunken log2 fold change” value is reported as -0.491. For RRIRMRPPRLPRPRPRPTAEPRP, the “shrunken log2 fold change” value was 2.75. RRIRWRPPRLPRPRPRPYDNPRP was tested, and the “shrunken log2 fold change” value was -0.263. RRIRNRPPRLPRPRPRPNFVPRP was tested, and the “shrunken log2 fold change” value was -0.317. In the case of RRIRCRPPRLPRPRPRPMNTPRP, the “shrunken log2 fold change” value is reported as -0.727. In the case of RRIRFRPPRLPRPRPRPHHTPRP, the “shrunken log2 fold change” value is reported as -0.597. RRIRTRPPRLPRPRPRPSEPPRP was tested, and the “shrunken log2 fold change” value was -0.295. In the case of RRIRCRPPRLPRPRPRPLTWPRP, the “shrunken log2 fold change” value is reported as -0.16. In the case of RRIRTRPPRLPRPRPRPRKVPRP, the “shrunken log2 fold change” value is reported as -0.295. In the case of RRIRQRPPRLPRPRPRPAPAPRP, the “shrunken log2 fold change” value is reported as 0.707. RRIRERPPRLPRPRPRPPTDPRP was tested, and the “shrunken log2 fold change” value was -0.0968. With RRIRNRPPRLPRPRPRPTWAPRP the “shrunken log2 fold change” value was 0.374. In the case of RRIRDRPPRLPRPRPRPSLEPRP, the “shrunken log2 fold change” value is reported as 0.245. With RRIRSRPPRLPRPRPRPVNMPRP the “shrunken log2 fold change” value was -0.103. In the case of RRIRYRPPRLPRPRPRPRSSPRP, the “shrunken log2 fold change” value is reported as 0.069. For RRIRARPPRLPRPRPRPVRNPRP, the “shrunken log2 fold change” value was 0.142. In the case of RRIRRRPPRLPRPRPRPHNVPRP, the “shrunken log2 fold change” value is reported as -0.916. With RRIRSRPPRLPRPRPRPKVMPRP the “shrunken log2 fold change” value was 0.0101. For RRIRTRPPRLPRPRPRPVLTPRP, the “shrunken log2 fold change” value was 1.21. For RRIRNRPPRLPRPRPRPMNCPRP, the “shrunken log2 fold change” value was -0.57. For RRIRFRPPRLPRPRPRPGSLPRP, the “shrunken log2 fold change” value was -0.479. RRIRDRPPRLPRPRPRPNCNPRP was tested, and the “shrunken log2 fold change” value was 1.33. In the case of RRIRLRPPRLPRPRPRPMSEPRP, the “shrunken log2 fold change” value is reported as -0.0383. RRIRTRPPRLPRPRPRPVYVPRP was tested, and the “shrunken log2 fold change” value was -0.62. For RRIRDRPPRLPRPRPRPCTNPRP, the “shrunken log2 fold change” value was -0.0463. RRIRRRPPRLPRPRPRPASKPRP was tested, and the “shrunken log2 fold change” value was 0.276. In the case of RRIRDRPPRLPRPRPRPRKCPRP, the “shrunken log2 fold change” value is reported as -0.0114. With RRIRSRPPRLPRPRPRPWKIPRP the “shrunken log2 fold change” value was -0.0842. In the case of RRIRQRPPRLPRPRPRPWRQPRP, the “shrunken log2 fold change” value is reported as 0.029. For RRIRLRPPRLPRPRPRPYVMPRP, the “shrunken log2 fold change” value was -0.194. In the case of RRIRKRPPRLPRPRPRPVELPRP, the “shrunken log2 fold change” value is reported as 0.111. In the case of RRIRVRPPRLPRPRPRPVCFPRP, the “shrunken log2 fold change” value is reported as 0.147. For RRIRRRPPRLPRPRPRPSWFPRP, the “shrunken log2 fold change” value was 0.165. RRIRMRPPRLPRPRPRPTQDPRP was tested, and the “shrunken log2 fold change” value was 1.24. For RRIRARPPRLPRPRPRPRLYPRP, the “shrunken log2 fold change” value was 0.501. For RRIRTRPPRLPRPRPRPGQHPRP, the “shrunken log2 fold change” value was 0.351. For RRIRTRPPRLPRPRPRPILEPRP, the “shrunken log2 fold change” value was -0.0122. RRIRARPPRLPRPRPRPLLWPRP was tested, and the “shrunken log2 fold change” value was 1.94. In the case of RRIRVRPPRLPRPRPRPFDWPRP, the “shrunken log2 fold change” value is reported as -0.103. RRIRRRPPRLPRPRPRPYIWPRP was tested, and the “shrunken log2 fold change” value was -0.335. RRIRVRPPRLPRPRPRPAGTPRP was tested, and the “shrunken log2 fold change” value was 0.146. For RRIRTRPPRLPRPRPRPLDEPRP, the “shrunken log2 fold change” value was 0.23. RRIRYRPPRLPRPRPRPYTPPRP was tested, and the “shrunken log2 fold change” value was -1.28. In the case of RRIRMRPPRLPRPRPRPGWIPRP, the “shrunken log2 fold change” value is reported as -0.0121. RRIRKRPPRLPRPRPRPKCWPRP was tested, and the “shrunken log2 fold change” value was 0.382. With RRIRFRPPRLPRPRPRPQFNPRP the “shrunken log2 fold change” value was -0.628. For RRIRDRPPRLPRPRPRPCGQPRP, the “shrunken log2 fold change” value was -0.0223. With RRIRWRPPRLPRPRPRPPQQPRP the “shrunken log2 fold change” value was 0.163. For RRIRCRPPRLPRPRPRPWQLPRP, the “shrunken log2 fold change” value was -0.263. For RRIRIRPPRLPRPRPRPHTFPRP, the “shrunken log2 fold change” value was -1.53. In the case of RRIRQRPPRLPRPRPRPRNVPRP, the “shrunken log2 fold change” value is reported as -0.0777. With RRIRFRPPRLPRPRPRPCFYPRP the “shrunken log2 fold change” value was -0.394. For RRIRWRPPRLPRPRPRPVDNPRP, the “shrunken log2 fold change” value was -0.018. RRIRHRPPRLPRPRPRPTHEPRP was tested, and the “shrunken log2 fold change” value was 0.0424. For RRIRERPPRLPRPRPRPGMSPRP, the “shrunken log2 fold change” value was 0.0438. RRIRTRPPRLPRPRPRPEMFPRP was tested, and the “shrunken log2 fold change” value was -0.0156.
